Results on 1 molecule are retold here after patent US20110059051, “Molecular Control of Brown Fat Differentiation and Engergy Expenditure” (Dana-Farber Cancer Institute, Inc., published 2011).

The target of this series is PRDM16 R998Q (Mus musculus, UniProt A2A935 SEQ:1-1275, R998Q). The experiment in a line: EMSA; R998Q completely loses DNA binding; same buffer as wild type. The conditions noted are these: label: 32P end label.
Chain of PRDM16 R998Q (A2A935 other isoform, or with tags, fused parts or gaps R998Q | R998Q R998Q): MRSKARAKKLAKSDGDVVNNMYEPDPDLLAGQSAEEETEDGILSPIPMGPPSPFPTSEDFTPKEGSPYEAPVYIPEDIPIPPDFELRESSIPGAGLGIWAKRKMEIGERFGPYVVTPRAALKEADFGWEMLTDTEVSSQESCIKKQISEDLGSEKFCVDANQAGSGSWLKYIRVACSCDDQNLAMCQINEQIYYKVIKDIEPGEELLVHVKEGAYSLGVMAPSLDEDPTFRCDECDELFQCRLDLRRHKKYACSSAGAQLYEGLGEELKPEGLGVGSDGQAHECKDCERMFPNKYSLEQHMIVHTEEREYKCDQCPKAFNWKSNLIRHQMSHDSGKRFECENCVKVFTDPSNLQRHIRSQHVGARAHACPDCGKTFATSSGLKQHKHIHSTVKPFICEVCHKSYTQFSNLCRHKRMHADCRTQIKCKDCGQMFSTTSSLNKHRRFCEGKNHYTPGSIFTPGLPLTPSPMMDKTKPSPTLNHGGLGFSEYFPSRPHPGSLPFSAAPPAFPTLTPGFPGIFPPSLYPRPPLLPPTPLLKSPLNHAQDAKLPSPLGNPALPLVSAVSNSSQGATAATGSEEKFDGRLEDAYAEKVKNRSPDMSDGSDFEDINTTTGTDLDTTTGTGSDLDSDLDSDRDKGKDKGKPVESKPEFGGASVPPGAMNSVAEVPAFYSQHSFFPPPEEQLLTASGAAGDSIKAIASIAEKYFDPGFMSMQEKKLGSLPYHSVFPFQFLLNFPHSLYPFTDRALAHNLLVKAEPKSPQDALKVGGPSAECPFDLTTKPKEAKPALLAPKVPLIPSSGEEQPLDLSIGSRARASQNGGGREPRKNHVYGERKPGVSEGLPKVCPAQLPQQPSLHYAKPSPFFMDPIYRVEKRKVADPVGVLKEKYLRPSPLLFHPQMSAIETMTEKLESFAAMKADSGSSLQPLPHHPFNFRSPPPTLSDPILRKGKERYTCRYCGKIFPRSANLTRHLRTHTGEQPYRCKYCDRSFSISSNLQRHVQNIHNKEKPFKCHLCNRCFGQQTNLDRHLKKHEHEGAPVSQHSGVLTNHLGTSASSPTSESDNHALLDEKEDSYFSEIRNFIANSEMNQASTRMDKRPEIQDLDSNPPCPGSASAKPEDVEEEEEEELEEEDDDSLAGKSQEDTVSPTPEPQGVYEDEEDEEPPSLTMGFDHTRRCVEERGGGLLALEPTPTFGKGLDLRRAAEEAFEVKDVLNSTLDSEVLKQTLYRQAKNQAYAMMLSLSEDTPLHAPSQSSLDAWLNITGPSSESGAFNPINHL

B1: PRDM16 consensus binding site EMSA probe (dsDNA)
DNA 1: GATCCGACAAGATAAGATAAGGATCTATAAGAAGATGAGGTATG
DNA 2: CATACCTCATCTTCTTATAGATCCTTATCTTATCTTGTCGGATC
Consider B1, for which the binding result was “no binding”.
